Reference: patent US20220177525A1
pKd: −log10 of the molar value.

Target: N-peptide (RABV N protein, residues 363-414, [change]) (RABV)

“NiP-CTD (C-terminal domain of the P protein of rabies virus strain Nishigahara, residues 186-297, Cy (from UniProt Q9IPJ8 186-296)” was tested, and the pKd was 4.06.
